B1: Azoarcus group I ribozyme (parent)
chain: GUGCCUUGCGCCGGGAAACCACGCAAGGGAUGGUGUCAAAUUCGGCGAAACCUAAGCGCCCGCCCGGGCGUAUGGCAACGCCGAGCCAAGCUUCGGCGCCUGCGCCGAUGAAGGUGUAGAGACUAGACGGCACCCACCUAAGGCAAACGCUAUGGUGAAGGCAUAGUCCAGGGAGUGGCGAAAGUCACACAAACCGG

Variants of: B1
Assay: reverse-splicing fitness (ratio to wild type); higher = more active; in vitro selection; Mg2+ level not given
Method in brief: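 An in vitro group I ribozyme library with randomized positions was T7-transcribed and gel-purified. In triplicate, 10 pmol RNA in EPPS pH 7.5 was reacted with 50 pmoles of a 30-nt RNA substrate for 1 h at 37 °C across several added MgCl2 levels (1–48 mM), then stopped with EDTA. Products were reverse transcribed from a substrate-complementary primer, PCR-amplified and sequenced (HiSeq 4000). Fitness is a variant's read proportion after selection over that before, normalised to wild type.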

**Q.** For GUGCCUUGCGCCGGGAAACCACGCAAGGGAUGGUGUCAAAUUCGGCGAAACCUAAGCGCCCGCCCGGGCGUAUGGCAACGCGGAGCCAAGCUUCGGCGCCUGCGCCGAUGCAGGUGUAGGGACUAGACGGCACCCACCUAAGGCCAACGAUAUGGUGAAGGCAUAGUCUAGGGAGCGGCGAAAGUCACACAAACCGG [C82G A111C A120G A145C C150A C169U U176C], which reverse-splicing fitness is on record?
**A.** 0.00999

**Q.** For GUGCCUUGCGCCGGGAAACCACGCAAGGGAUGGUGUCAAAUUCGGCGAAACCUAAGCGCCCGCCCGGGCGUAUGGCAACGCGGAGCCAAGCUUCGGCGCCUGCGCCGAUGCAGGUGUAGGGACUAGACGGCACCCACCUAAGGCCAACGGUAUGGUGAAGGCAUAGUCGAGGGAGAGGCGAAAGUCACACAAACCGG [C82G A111C A120G A145C C150G C169G U176A], which reverse-splicing fitness is on record?
**A.** 0.00837

**Q.** Which reverse-splicing fitness does the source give for GUGCCUUGCGCCGGGAAACCACGCAAGGGAUGGUGUCAAAUUCGGCGAAACCUAAGCGCCCGCCCGGGCGUAUGGCAACGCGGAGCCAAGCUUCGGCGCCUGCGCCGAUGCAGGUGUAGGGACUAGACGGCACCCACCUAAGGCCAACGGUAUGGUGAAGGCAUAGUCGAGGGAGCGGCGAAAGUCACACAAACCGG [C82G A111C A120G A145C C150G C169G U176C] here?
**A.** 0.00726

**Q.** For GUGCCUUGCGCCGGGAAACCACGCAAGGGAUGGUGUCAAAUUCGGCGAAACCUAAGCGCCCGCCCGGGCGUAUGGCAACGCGGAGCCAAGCUUCGGCGCCUGCGCCGAUGCAGGUGUAGGGACUAGACGGCACCCACCUAAGGCCAACGGUAUGGUGAAGGCAUAGUCGAGGGAGGGGCGAAAGUCACACAAACCGG [C82G A111C A120G A145C C150G C169G U176G], which reverse-splicing fitness is on record?
**A.** 0.00499

**Q.** For GUGCCUUGCGCCGGGAAACCACGCAAGGGAUGGUGUCAAAUUCGGCGAAACCUAAGCGCCCGCCCGGGCGUAUGGCAACGCGGAGCCAAGCUUCGGCGCCUGCGCCGAUGCAGGUGUAGGGACUAGACGGCACCCACCUAAGGCCAACGAUAUGGUGAAGGCAUAGUCAAGGGAGGGGCGAAAGUCACACAAACCGG [C82G A111C A120G A145C C150A C169A U176G], which reverse-splicing fitness is on record?
**A.** 0.00562

**Q.** Which reverse-splicing fitness does the source give for GUGCCUUGCGCCGGGAAACCACGCAAGGGAUGGUGUCAAAUUCGGCGAAACCUAAGCGCCCGCCCGGGCGUAUGGCAACGCGGAGCCAAGCUUCGGCGCCUGCGCCGAUGCAGGUGUAGGGACUAGACGGCACCCACCUAAGGCCAACGAUAUGGUGAAGGCAUAGUCAAGGGAGAGGCGAAAGUCACACAAACCGG [C82G A111C A120G A145C C150A C169A U176A] here?
**A.** 0.0124

**Q.** For GUGCCUUGCGCCGGGAAACCACGCAAGGGAUGGUGUCAAAUUCGGCGAAACCUAAGCGCCCGCCCGGGCGUAUGGCAACGCGGAGCCAAGCUUCGGCGCCUGCGCCGAUGCAGGUGUAGGGACUAGACGGCACCCACCUAAGGCCAACGAUAUGGUGAAGGCAUAGUCAAGGGAGCGGCGAAAGUCACACAAACCGG [C82G A111C A120G A145C C150A C169A U176C], which reverse-splicing fitness is on record?
**A.** 0.00779

**Q.** For GUGCCUUGCGCCGGGAAACCACGCAAGGGAUGGUGUCAAAUUCGGCGAAACCUAAGCGCCCGCCCGGGCGUAUGGCAACGCGGAGCCAAGCUUCGGCGCCUGCGCCGAUGCAGGUGUAGGGACUAGACGGCACCCACCUAAGGCCAACGAUAUGGUGAAGGCAUAGUCAAGGGAGUGGCGAAAGUCACACAAACCGG [C82G A111C A120G A145C C150A C169A], which reverse-splicing fitness is on record?
**A.** 0.00918

**Q.** For GUGCCUUGCGCCGGGAAACCACGCAAGGGAUGGUGUCAAAUUCGGCGAAACCUAAGCGCCCGCCCGGGCGUAUGGCAACGCGGAGCCAAGCUUCGGCGCCUGCGCCGAUGCAGGUGUAGGGACUAGACGGCACCCACCUAAGGCCAACGAUAUGGUGAAGGCAUAGUCGAGGGAGUGGCGAAAGUCACACAAACCGG [C82G A111C A120G A145C C150A C169G], which reverse-splicing fitness is on record?
**A.** 0.00794

**Q.** Which reverse-splicing fitness does the source give for GUGCCUUGCGCCGGGAAACCACGCAAGGGAUGGUGUCAAAUUCGGCGAAACCUAAGCGCCCGCCCGGGCGUAUGGCAACGCGGAGCCAAGCUUCGGCGCCUGCGCCGAUGCAGGUGUAGGGACUAGACGGCACCCACCUAAGGCCAACGAUAUGGUGAAGGCAUAGUCUAGGGAGUGGCGAAAGUCACACAAACCGG [C82G A111C A120G A145C C150A C169U] here?
**A.** 0.00679

**Q.** For GUGCCUUGCGCCGGGAAACCACGCAAGGGAUGGUGUCAAAUUCGGCGAAACCUAAGCGCCCGCCCGGGCGUAUGGCAACGCGGAGCCAAGCUUCGGCGCCUGCGCCGAUGCAGGUGUAGGGACUAGACGGCACCCACCUAAGGCCAACGAUAUGGUGAAGGCAUAGUCCAGGGAGUGGCGAAAGUCACACAAACCGG [C82G A111C A120G A145C C150A], which reverse-splicing fitness is on record?
**A.** 0.00698

**Q.** Which reverse-splicing fitness does the source give for GUGCCUUGCGCCGGGAAACCACGCAAGGGAUGGUGUCAAAUUCGGCGAAACCUAAGCGCCCGCCCGGGCGUAUGGCAACGCGGAGCCAAGCUUCGGCGCCUGCGCCGAUGCAGGUGUAGGGACUAGACGGCACCCACCUAAGGCCAACGGUAUGGUGAAGGCAUAGUCCAGGGAGUGGCGAAAGUCACACAAACCGG [C82G A111C A120G A145C C150G] here?
**A.** 0.00634

**Q.** For GUGCCUUGCGCCGGGAAACCACGCAAGGGAUGGUGUCAAAUUCGGCGAAACCUAAGCGCCCGCCCGGGCGUAUGGCAACGCGGAGCCAAGCUUCGGCGCCUGCGCCGAUGCAGGUGUAGGGACUAGACGGCACCCACCUAAGGCCAACGGUAUGGUGAAGGCAUAGUCAAGGGAGCGGCGAAAGUCACACAAACCGG [C82G A111C A120G A145C C150G C169A U176C], which reverse-splicing fitness is on record?
**A.** 0.00738

**Q.** For GUGCCUUGCGCCGGGAAACCACGCAAGGGAUGGUGUCAAAUUCGGCGAAACCUAAGCGCCCGCCCGGGCGUAUGGCAACGCGGAGCCAAGCUUCGGCGCCUGCGCCGAUGCAGGUGUAGGGACUAGACGGCACCCACCUAAGGCCAACGGUAUGGUGAAGGCAUAGUCAAGGGAGGGGCGAAAGUCACACAAACCGG [C82G A111C A120G A145C C150G C169A U176G], which reverse-splicing fitness is on record?
**A.** 0.005

**Q.** Which reverse-splicing fitness does the source give for GUGCCUUGCGCCGGGAAACCACGCAAGGGAUGGUGUCAAAUUCGGCGAAACCUAAGCGCCCGCCCGGGCGUAUGGCAACGCGGAGCCAAGCUUCGGCGCCUGCGCCGAUGCAGGUGUAGGGACUAGACGGCACCCACCUAAGGCCAACGGUAUGGUGAAGGCAUAGUCAAGGGAGAGGCGAAAGUCACACAAACCGG [C82G A111C A120G A145C C150G C169A U176A] here?
**A.** 0.00812
